Read-outs that look alike come from different tables or passages of the source.
Tests used:
Assay in all cases: SEC-MALS
[1] = molecular target: DdMICU (Dictyostelium discoideum MICU, residues 105–461) (Dictyostelium discoideum)
[2] = molecular target: DdMICU (Dictyostelium discoideum MICU, residues 105–461) (Dictyostelium discoideum); remark: listed apart in the source
[3] = molecular target: DdMICU (Dictyostelium discoideum MICU, residues 105–461) (Dictyostelium discoideum); remark: listed apart in the source

stoichiometry N [1]: 2
stoichiometry N [2]: 2
stoichiometry N [3]: 4
Substance: DdMICU (Dictyostelium discoideum MICU, residues 105–461) (domain or fragment)

Reference: paper PMC12095637
